Results: paper PMC10590968, “Deciphering the role of recurrent FAD-dependent enzymes in bacterial phosphonate catabolism” (iScience, 2023)

How the values were obtained:
[1] = target: T1, PbfC (Azospirillum sp. B510, UniProt P0DY71); assay: UV-vis spectra of bound flavin; cofactor released by heat or SDS; assay type: binding; details: noncovalent; 10 μM FAD added during purification; 50 mM TEA-HCl pH 8.0
T1 construct: synthetic codon-optimised gene in pET28a, N-terminal His tag, expressed in E. coli Tuner (DE3), HisTrap and SEC; noncovalent FAD
T1 sequence (P0DY71 1-415): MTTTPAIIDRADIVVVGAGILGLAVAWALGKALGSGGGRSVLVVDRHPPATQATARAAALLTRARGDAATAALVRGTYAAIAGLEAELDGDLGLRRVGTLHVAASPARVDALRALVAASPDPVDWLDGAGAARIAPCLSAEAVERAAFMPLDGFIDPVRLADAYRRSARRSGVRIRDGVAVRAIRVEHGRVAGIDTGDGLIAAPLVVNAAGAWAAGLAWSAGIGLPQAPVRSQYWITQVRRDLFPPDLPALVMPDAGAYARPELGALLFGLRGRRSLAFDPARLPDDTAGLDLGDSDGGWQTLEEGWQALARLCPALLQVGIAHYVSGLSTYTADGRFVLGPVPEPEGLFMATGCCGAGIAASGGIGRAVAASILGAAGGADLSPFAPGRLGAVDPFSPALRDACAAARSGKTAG

[2] = target: T2, PbfD1 (Acinetobacter baumannii, UniProt P0DY72); assay: as above; assay type: binding; details: noncovalent; 10 μM FAD added at lysis; 50 mM TEA-HCl pH 8.0
T2 construct: gene pbfD; synthetic codon-optimised gene in pET28a, N-terminal His tag, expressed in E. coli Tuner (DE3), HisTrap; noncovalent FAD
T2 sequence (P0DY72 1-384): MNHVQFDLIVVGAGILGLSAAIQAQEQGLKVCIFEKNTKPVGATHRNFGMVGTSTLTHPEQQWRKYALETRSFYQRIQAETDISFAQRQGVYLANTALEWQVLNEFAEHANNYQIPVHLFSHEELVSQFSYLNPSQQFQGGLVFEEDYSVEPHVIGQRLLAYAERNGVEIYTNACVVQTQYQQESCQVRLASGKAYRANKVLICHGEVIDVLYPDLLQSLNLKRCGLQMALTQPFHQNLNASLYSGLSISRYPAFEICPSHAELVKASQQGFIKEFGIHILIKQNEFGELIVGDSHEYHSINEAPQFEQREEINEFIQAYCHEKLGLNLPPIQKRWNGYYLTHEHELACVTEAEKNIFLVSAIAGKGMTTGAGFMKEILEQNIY

[3] = target: T3, PbfD2 (Mariniblastus fucicola, UniProt A0A5B9PNB8); assay: as above; assay type: binding; details: noncovalent; 10 μM FAD added at lysis; 50 mM TEA-HCl pH 8.0
T3 construct: gene pbfD; noncovalent FAD
T3 sequence (A0A5B9PNB8 1-373): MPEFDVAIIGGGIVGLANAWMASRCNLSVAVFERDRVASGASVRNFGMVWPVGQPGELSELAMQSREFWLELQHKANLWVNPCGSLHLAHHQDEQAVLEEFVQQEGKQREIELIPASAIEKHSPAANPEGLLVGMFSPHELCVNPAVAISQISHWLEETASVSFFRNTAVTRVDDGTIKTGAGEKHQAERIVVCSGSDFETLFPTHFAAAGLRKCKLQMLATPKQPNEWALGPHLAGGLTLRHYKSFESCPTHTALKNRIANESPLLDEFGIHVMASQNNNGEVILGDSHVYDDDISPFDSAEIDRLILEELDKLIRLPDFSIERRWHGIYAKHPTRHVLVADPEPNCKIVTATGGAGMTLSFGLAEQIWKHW

[4] = substrate: CNCCP(=O)(O)O; assay: purified protein
[5] = substrate: NCCP(=O)(O)O; assay: purified protein
[6] = substrate: CN(C)CCP(=O)(O)O; assay: coupled PhnX-ADH assay, NADH A340, Michaelis-Menten fit; assay type: biochemical, Acinetobacter baumannii; details: air-saturated (~0.25 mM O2), 50 mM TEA-HCl pH 8.0, 2.5 mM MgCl2, 25°C
Text: (§1) coupled PhnX-ADH assay, NADH A340, Michaelis-Menten fit on PbfD1

[7] = substrate: CNCCP(=O)(O)O; assay: as above; assay type: biochemical, Acinetobacter baumannii; details: air-saturated (~0.25 mM O2), 50 mM TEA-HCl pH 8.0, 2.5 mM MgCl2, 25°C
Text: as §1

[8] = substrate: NCCP(=O)(O)O; assay: as above; assay type: biochemical, Acinetobacter baumannii; details: air-saturated (~0.25 mM O2), 50 mM TEA-HCl pH 8.0, 2.5 mM MgCl2, 25°C
Text: as §1

[9] = 80 μM DCPIP, 3 mM PMS, 50 mM TEA-HCl pH 8.0, 25°C
[10] = air-saturated (~0.25 mM O2), 50 mM TEA-HCl pH 8.0, 2.5 mM MgCl2, 25°C

With `Cc1cc2nc3c(=O)[nH]c(=O)nc-3n(C[C@H](O)[C@H](O)[C@H](O)COP(=O)(O)OP(=O)(O)OC[C@H]3O[C@@H](n4cnc5c(N)ncnc54)[C@H](O)[C@@H]3O)c2cc1C` [FAD] the “UV-vis spectra of bound flavin; cofactor released by heat or SDS” value (shortened to “UV-vis spectra of bound flavin”) [1] was “the spectrum of the released cofactor was typical of FAD”, the “UV-vis spectra of bound flavin” value [2] was “the spectrum of the released cofactor was typical of FAD” and the “UV-vis spectra of bound flavin” value [3] was “the spectrum of the released cofactor was typical of FAD”.

B1: PbfC (Azospirillum sp. B510) (protein)
chain: MTTTPAIIDRADIVVVGAGILGLAVAWALGKALGSGGGRSVLVVDRHPPATQATARAAALLTRARGDAATAALVRGTYAAIAGLEAELDGDLGLRRVGTLHVAASPARVDALRALVAASPDPVDWLDGAGAARIAPCLSAEAVERAAFMPLDGFIDPVRLADAYRRSARRSGVRIRDGVAVRAIRVEHGRVAGIDTGDGLIAAPLVVNAAGAWAAGLAWSAGIGLPQAPVRSQYWITQVRRDLFPPDLPALVMPDAGAYARPELGALLFGLRGRRSLAFDPARLPDDTAGLDLGDSDGGWQTLEEGWQALARLCPALLQVGIAHYVSGLSTYTADGRFVLGPVPEPEGLFMATGCCGAGIAASGGIGRAVAASILGAAGGADLSPFAPGRLGAVDPFSPALRDACAAARSGKTAG
Work on B1 yielded a Km [4, 9] of 0.20 ± 0.01 mM, a kcat [4, 9] of 9 ± 0.2 s⁻¹ and a kcat/Km [4, 9] of 45000 ± 2700 M⁻¹ s⁻¹. For the same molecule, the Km [5, 9] was 20 ± 1.7 mM, the kcat [5, 9] was 2.2 ± 0.1 s⁻¹ and the kcat/Km [5, 9] was 110 ± 6 M⁻¹ s⁻¹.

B2: PbfD2 (Mariniblastus fucicola) (protein)
chain: MPEFDVAIIGGGIVGLANAWMASRCNLSVAVFERDRVASGASVRNFGMVWPVGQPGELSELAMQSREFWLELQHKANLWVNPCGSLHLAHHQDEQAVLEEFVQQEGKQREIELIPASAIEKHSPAANPEGLLVGMFSPHELCVNPAVAISQISHWLEETASVSFFRNTAVTRVDDGTIKTGAGEKHQAERIVVCSGSDFETLFPTHFAAAGLRKCKLQMLATPKQPNEWALGPHLAGGLTLRHYKSFESCPTHTALKNRIANESPLLDEFGIHVMASQNNNGEVILGDSHVYDDDISPFDSAEIDRLILEELDKLIRLPDFSIERRWHGIYAKHPTRHVLVADPEPNCKIVTATGGAGMTLSFGLAEQIWKHW
In the case of B2, the Km [4, 10] is reported as 0.36 ± 0.02 mM, the kcat [4, 10] is reported as 4.9 ± 0.07 s⁻¹ and the kcat/Km [4, 10] is reported as 13500 ± 550 M⁻¹ s⁻¹. The Km [5, 10] was 2.6 ± 0.32 mM, the kcat [5, 10] was 8.9 ± 0.3 s⁻¹ and the kcat/Km [5, 10] was 3400 ± 320 M⁻¹ s⁻¹.

B3: PbfD1 (Acinetobacter baumannii) (protein)
chain: MNHVQFDLIVVGAGILGLSAAIQAQEQGLKVCIFEKNTKPVGATHRNFGMVGTSTLTHPEQQWRKYALETRSFYQRIQAETDISFAQRQGVYLANTALEWQVLNEFAEHANNYQIPVHLFSHEELVSQFSYLNPSQQFQGGLVFEEDYSVEPHVIGQRLLAYAERNGVEIYTNACVVQTQYQQESCQVRLASGKAYRANKVLICHGEVIDVLYPDLLQSLNLKRCGLQMALTQPFHQNLNASLYSGLSISRYPAFEICPSHAELVKASQQGFIKEFGIHILIKQNEFGELIVGDSHEYHSINEAPQFEQREEINEFIQAYCHEKLGLNLPPIQKRWNGYYLTHEHELACVTEAEKNIFLVSAIAGKGMTTGAGFMKEILEQNIY
notes: synthetic codon-optimised gene in pET28a, N-terminal His tag, expressed in E. coli Tuner (DE3), HisTrap; noncovalent FAD
B3 showed a Km [6] of 54 ± 14 mM, a kcat [6] of 22 ± 4.5 s⁻¹ and a kcat/Km [6] of 400 ± 26 M⁻¹ s⁻¹. It also gave a Km [7] of 5.8 ± 0.62 mM, a kcat [7] of 13.2 ± 0.54 s⁻¹ and a kcat/Km [7] of 2300 ± 160 M⁻¹ s⁻¹. It also gave a Km [8] of 71 ± 16 mM, a kcat [8] of 9.1 ± 1.7 s⁻¹ and a kcat/Km [8] of 130 ± 6 M⁻¹ s⁻¹.
